# Data as given in patent US20250263697, “COMPOSITIONS AND METHODS OF MODULATING RNA AND PROTEIN INTERACTIONS” (The Regents of the University of California, published 2025).
# B1: Scov2_7431_7555_RNA (ssRNA)
# RNA: GGGCGAAAACGCCCCAUUUUAUUAUGUAUGGAAAAGUUAUGUGCAUGUUGUAGACGGUUGUAAUUCAUCAACUUGUAUGAUGUGUUACAAACGUAAUAGAGCAACAAGAGUCGAAUGUACAACUAUUGUUAAUGGUGUU
# Target: NSP12 (RNA-dependent RNA polymerase) (SARS-CoV-2, UniProt P0DTD1 P0DTD1:4393-5324)
# Test: FP
binder,measurement,value
B1,Kd,17 nM
